According to patent US20090202574A1, “METHODS OF IMMUNE OR HAEMATOLOGICAL ENHANCEMENT, INHIBITING TUMOUR FORMATION OR GROWTH, AND TREATING OR PREVENTING CANCER” (priority 2004, published 2009):

Tests used:
[1] = test system: B16 target cells; experiment: Anti-tumour cytolytic activity of splenocytes against B16 target cells; assay type: in vivo, C57BL/6 mice; details: Example 18, FIG. 14D (fluorouracil experiment), vs controls
Experimental: Splenocytes were tested for their cytolytic activity against tumour target cells. […] Referring to FIGS. 14B, D, and F the percent cytotoxicity is plotted against various effector-to-target cell ratios (E:T ratios); each point represents the mean percent cytotoxicity obtained from 5 mice; and the bar represents 95% confidence intervals.

[2] = test system: EL-4 tumours; experiment: Apoptotic index of tumour sections (TUNEL, annexin-V-fluos); assay type: in vivo, C57BL/6 mice; details: Example 7; vs mice fed control diet; P<0.001
Experimental: For in situ detection of apoptotic cells, tumors were excised and immediately frozen in dry ice, and stored at −70° C. Frozen serial sections of 6-μm thickness were fixed with paraformaldehyde solution (4% in PBS, pH 7.4), and permeabilized with a solution containing 0.1% Triton X-100 and 0.1% sodium citrate. They were incubated with 20 μl TUNEL reagent (In Situ apoptosis detection kit from Boehringer Mannheim, Germany) for 60 min at 37° C., and examined by fluorescence microscopy. Adjacent sections were counter-stained with haematoxylin to count the total number of cells, or the number of apoptotic cells in ten randomly selected fields (magnification of ×40). The apototic index (AI) was calculated as the number of apoptotic cells×100/total number of nucleated cells. For detection of apoptotic cells in vitro, the numbers of apoptotic and necrotic tumour cells were measured by staining with annexin-V-fluos, TUNEL, and trypan blue, as described previously (Kanwar, et al., 2001).
Sections were prepared from tumours of mice shown in FIGS. 4A and 4B at day 56 for the untreated control group fed the control diet, at day 70 for the groups fed either the control or iron-saturated bovine lactoferrin diet receiving paclitaxel and/or doxorubicin, and 7 days after treatment with drugs for mice fed the control diet. […]

[3] = Blood haematological profile (red and white blood cell counts); assay type: in vivo, mice; details: blood from the heart at autopsy; mean
Experimental: The red and white blood cell counts of mice sacrificed in the preceding examples were recorded. Oral feeding of bovine iron-saturated lactoferrin alone or in combination with administration of paclitaxel or doxorubicin or both increased the mean values of red and white blood cells compared to control mice and compared to mice administered paclitaxel and doxorubicin but not fed lactoferrin, as shown in Table 1.

[4] = test system: Th1 (IL-18, TNF-α, IFN-γ) and Th2 (IL-4, IL-5, IL-6, IL-10) cytokines; experiment: ELISA of Th1 and Th2 cytokines in intestine and tumour; assay type: in vivo, mice; details: Example 14
Experimental: (§1) Cytokine levels in the supernatants of homogenates of the small intestine were determined using a “sandwich” ELISA kit (Endogen, Woburn, Mass.). They were detected within standard curve ranges of 15-375 pg/ml for IL-4, 0-2450 pg/ml for IL-5, 15-1000 pg/ml for TNF-α, 0-3000 pg/ml for IFN-γ, 37-3000 pg/ml for IL-10, 31.3-2000 pg/ml for IL-12, and 31.3-2000 pg/ml for IL-18, respectively. Quantification of nitrite, indicative of NO production, was carried out by the Griess reaction (Sigma, USA). The results are expressed as the mean nitrite concentration (μM)±SD.
(§2) The ability of oral iron-saturated lactoferrin to affect the expression of a panel of Th1 and Th2 cytokines was examined in non-tumour-bearing mice, and in tumour-bearing mice fed iron-saturated bovine lactoferrin or the control diet, and treated with either paclitaxel or doxorubicin or a combination of the two drugs.

[5] = test system: Nitrous oxide; experiment: Nitrite (Griess reaction) at tumour site and in intestine; assay type: in vivo, mice; details: Example 14, P<0.001
Experimental: as §1, §2

[6] = test system: cultured EL-4 tumour cells; experiment: Apoptosis of cultured EL-4 tumour cells triggered by sera of fed mice; assay type: cell-based, C57BL/6 mice; details: Example 17; sera after 6 weeks of 28 g per 2.4 Kg diet; vs spontaneous apoptosis; control-diet sera 80%
Experimental: Feeding of Fe-saturated lactoferrin releases anti-tumour factors into the systemic circulation. Fifteen 8 to 9 week-old female C57BL/6 mice were fed the control AIN-93 diet or a diet supplemented with 28 g of 100% Fe-saturated lactoferrin per 2.4 Kg of diet. Sera was collected from experimental and control mice after 6 weeks of feeding the latter diets and tested for their ability to trigger the apoptosis of cultured EL-4 tumour cells.
Sera collected from experimental and control mice was tested for its ability to trigger the apoptosis of cultured EL-4 tumour cells. EL-4 cells (2×10^3) in 80 μl of DMEM media were incubated for 24 h in the presence or absence of 100 μl of sera that had been concentrated to 20 μl. The cells were then washed, permeabilized with a solution containing 0.1% Triton X-100 and 0.1% sodium citrate, and incubated with 20 μl of TUNEL reagent (In Situ apoptosis detection kit from Boehringer Mannheim, Germany) for 60 min at 37° C., and examined by fluorescence microscopy. Total numbers of cells were counted by staining the cells with methylene blue. The number of apoptotic cells was counted in ten randomly selected fields (magnification of ×40). The apototic index (AI) was calculated as the number of apoptotic cells×100/total number of nucleated cells.

[7] = test system: EL-4 target cells; experiment: Anti-tumour CTL and/or NK cell cytolytic activity of splenocytes against EL-4 target cells; details: for increase in anti-tumour CTL and/or NK cell activity: Example 2, day 98; for increase in anti-tumour cytolytic activity: Example 18, EL-4, vs controls
Experimental: Splenocytes were harvested 28 days following tumour cell injection, as specified. They were incubated at 37° C. with EL-4 target cells in graded E:T ratios in 96-well round-bottom plates. After a 4-hour incubation, 50 μl of supernatant was collected, and lysis was measured using the Cyto Tox 96 Assay Kit (Promega, Madison, Wis., USA). Background controls for non-specific target and effector cell lysis were included. After background subtraction, percentage of cell lysis was calculated using the formula: 100× (experimental-spontaneous effector-spontaneous target/maximum target-spontaneous target).

B1: iron-saturated bovine lactoferrin: Iron-saturated bovine lactoferrin extract (100% saturated) prepared from natural bLf (protein)
chain: APRKNVRWCTISQPEWFKCRRWQWRMKKLGAPSITCVRRAFALECIRAIAEKKADAVTLDGGMVFEAGRDPYKLRPVAAEIYGTKESPQTHYYAVAVVKKGSNFQLDQLQGRKSCHTGLGRSAGWIIPMGILRPYLSWTESLEPLQGAVAKFFSASCVPCIDRQAYPNLCQLCKGEGENQCACSSREPYFGYSGAFKCLQDGAGDVAFVKETTVFENLPEKADRDQYELLCLNNSRAPVDAFKECHLAQVPSHAVVARSVDGKEDLIWKLLSKAQEKFGKNKSRSFQLFGSPPGQRDLLFKDSALGFLRIPSKVDSALYLGSRYLTTLKNLRETAEEVKARYTRVVWCAVGPEEQKKCQQWSQQSGQNVTCATASTTDDCIVLVLKGEADALNLDGGYIYTAGKCGLVPVLAENRKSSKHSSLDCVLRPTEGYLAVAVVKKANEGLTWNSLKDKKSCHTAVDRTAGWNIPMGLIVNQTGSCAFDEFFSQSCAPGADPKSRLCALCAGDDQGLDKCVPNSKEKYYGYTGAFRCLAEDVGDVAFVKNDTVWENTNGESTADWAKNLNREDFRLLCLDGTRKPVTEAQSCHLAVAPNHAVVSRSDRAAHVKQVLLHQQALFGKNGKNCPDKFCLFKSETKNLLFNDNTECLAKLGGRPTYEEYLGTEYVTAIANLKKCSTSPLLEACAFLTR
modifications: iron-saturated; Bovine Lactoferrin
notes: Iron-saturated bovine lactoferrin extract (100% saturated) prepared from natural bLf
[1]
  increase in anti-tumour cytolytic activity: 45%
[2]
  increase in the apoptotic index of tumours: 1.9 fold
[3]
  RBCs: 8.2 ± 2.5 ×10^6/mm^3
  WBCs: 3.5 ± 1.2 ×10^3/mm^3
[4]
  cytokines within the tumor site: increased the presence of all cytokines
[4]; oral feeding
  levels of IL-18 and IL-10 in tumour-bearing mice relative to non-tumour-bearing mice: less than half
[5]
  increase in nitrous oxide: 3 to 4 fold
[6]
  increase in tumour cell apoptosis induced by sera: 300%
[7]; Example 1, splenocytes at day 42, vs control diet
  anti-tumour CTL and/or NK cell activity of splenocytes: significantly (P<0.05) increased
[7]; mice that remained tumour-free, vs control diet, P<0.001
  increase in anti-tumour CTL and/or NK cell activity: 6 fold
[7]; mice who developed tumours and were switched to control diet, vs control diet, P<0.001
  increase in anti-tumour CTL and/or NK cell activity: 30 fold
[7]; Example 15, the one mouse that resisted the tumour challenge, vs control, P<0.001
  increase in anti-tumour cytolytic activity of splenocytes: 6 fold
[7]; Example 16, 6 of 30 mice that rejected the tumour on 1, 5 and 25 g diets, p<0.001
  increase in anti-tumour cytolytic activities of splenocytes: 3 to 4.6 fold
[7]; FIG. 14B (epirubucin experiment)
  increase in anti-tumour cytolytic activity: 130%
[7]; FIG. 14D (fluorouracil experiment)
  increase in anti-tumour cytolytic activity: 87%
[7]; FIG. 14F (cyclophosphamide/methotrexate experiment)
  increase in anti-tumour cytolytic activity: 100%
